Consider one variant from PMC12151214.

First the molecules themselves.
B1: GFP-HMGA1 (WT) [human] / mCherry-LacI-CHFR [human] (parent)
chain 1: MSESSSKSSQPLASKQEKDGTEKRGRGRPRKQPPVSPGTALVGSQKEPSEVPTPKRPRGRPKGSKNKGAAKTRKTTTTPGRKPRGRPKKLEKEEEEGISQESSEEEQ
chain 2: MERPEEGKQSPPPQPWGRLLRLGAEEGEPHVLLRKREWTIGRRRGCDLSFPSNKLVSGDHCRIVVDEKSGQVTLEDTSTSGTVINKLKVVKKQTCPLQTGDVIYLVYRKNEPEHNVAYLYESLSEKQGMTQESFEANKENVFHGTKDTSGAGAGRGADPRVPPSSPATQVCFEEPQPSTSTSDLFPTASASSTEPSPAGRERSSSCGSGGGGISPKGSGPSVASDEVSSFASALPDRKTASFSSLEPQDQEDLEPVKKKMRGDGDLDLNGQLLVAQPRRNAQTVHEDVRAAAGKPDKMEETLTCIICQDLLHDCVSLQPCMHTFCAACYSGWMERSSLCPTCRCPVERICKNHILNNLVEAYLIQHPDKSRSEEDVQSMDARNKITQDMLQPKVRRSFSDEEGSSEDLLELSDVDSESSDISQPYVVCRQCPEYRRQAAQPPHCPAPEGEPGAPQALGDAPSTSVSLTTAVQDYVCPLQGSHALCTCCFQPMPDRRAEREQDPRVAPQQCAVCLQPFCHLYWGCTRTGCYGCLAPFCELNLGDKCLDGVLNNNSYESDILKNYLATRGLTWKNMLTESLVALQRGVFLLSDYRVTGDTVLCYCCGLRSFRELTYQYRQNIPASELPVAVTSRPDCYWGRNCRTQVKAHHAMKFNHICEQTRFKN

The variants in this assay derive from B1. In words: LacI-LacO fluorescence colocalization assay (GFP-HMGA1 foci intensity at LacO array, ImageJ). The conditions noted are these: with mCherry-LacI-CHFR [human]; U2OS-265 cells cotransfected for 24 h; parent: 1.5; read off a plot.
Consider chain 1 MSESSSKSSQPLASKQEKDGTEKRGRGRPRKQPPVSPGTALVGSQKEPSQVPTPKRPRGRPKGSKNKGAAKTRKTTTTPGRKPRGRPKKLEKEEEEGISQESSEEEQ [chain 1 E50Q], for which the response was 1.
